Source: the supplement of paper PMC6755084

test system: F1*sub RNA substrate (template-directed ligation); assay: fraction ligated after 30 min (ligated reads / total reads); higher = more ligase activity; sequences stand for … in GAGACCGCAACTGAAAAGTTGT…AGTTCTGCACGTAGAAGCAAAAGGC; conditions: 42 °C
Summary of the method: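 Oligo-pool templates of ligase ribozyme variants were PCR-amplified, T7-transcribed and gel-purified. Ligated and unligated bands were gel-separated, reverse transcribed with barcoded primers, and MiSeq-sequenced; core bases were filtered at quality ≥20. Fraction ligated per variant was ligated reads over total reads.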

Sequence | fraction ligated
TATACTTGTCGTAAACATTTGGATGGGTTGA [3d885] | 0.78
TACACTTTCGTAAGACACTTTGGAGGGTTGA [3d597] | 0.0439
ATCACTTGTCGTAAGACCTTTGATGGGTTGA [3d240] | 0.311
TATCACTTTCGTAAGAACTTGGATGGGTTGA [3d1540] | 0.829
TATCTTGTCGTAAGACACTTGGATGGGTTGA [3d751] | 0.776
TATCACTGTCGAAGACACTTTGGATGGGTTGA [2d133] | 0.835
TATCCTTGTCGTAAACACTTTGGATGGGTTG [3d1064] | 0.805
TATCACGTCGTAAGACACTTGGATGGGTTGA [3d1304] | 0.81
ATCACTTTCGTAAGACACTTTGGATGGGTTGA [2d7] | 0.772
TATCACTTGTGAAGACACTTTGGATGGGTTG [3d1730] | 0.854
TATCACTGTCGTAAGACCTTTGGATGGTTGA [3d1430] | 0.628
TATACTTGTCGAAGACACTTTGGATGGGTTA [3d868] | 0.0412
TATCCTTGTCGTAAGACCTTTGGAGGGTTGA [3d1086] | 0.0073
TATCACTGTCGTAAGACACTTTGGATGGGTTG [2d146] | 0.798
TATCACTTTTAAGACACTTTGGATGGGTTGA [3d1464] | 0.768
TTCACTTGTCGTAAGACACTTTGGAGGGTTGA [2d43] | 0.227
TATCATTGCGTAAGACCTTTGGATGGGTTGA [3d1163] | 0.815
TATCACTTTCGTAAGCACTTTGGAGGGTTGA [3d1535] | 0.03
TATCACTTGTCTAAGACACTGGATGGGTTGA [3d1878] | 0.787
TATCACTTGTCAGACACTTTGGATGGGTTGA [3d1810] | 0.824
TACACTTGTCGTAAGACCTTTGGATGGTTGA [3d704] | 0.358

Sequence | fraction ligated
TACACTTGTCGTAGACACTTTGGTGGGTTGA [3d667] | 0.0835
TATCACTTGTCAAGAACTTTGGATGGGTTGA [3d1813] | 0.839
TATCACTTTCGTAAGAACTTTGGATGGTTGA [3d1544] | 0.643
TATCACTTGTCGTAAGAACTTTGATGGGTTGA [2d256] | 0.79
TATCCGTCGTAAGACACTTTGGATGGGTTGA [3d949] | 0.798
ATCACTTGTCGTAAAACTTTGGATGGGTTGA [3d211] | 0.768
TATCATTGTGTAAACACTTTGGATGGGTTGA [3d1175] | 0.82
TATCACTTGGTAAGACACTTTGGATGGTTGA [3d1596] | 0.134
ATCACTTGTCGTAAGCACTTTGATGGGTTGA [3d225] | 0.393
TATACTTGCGTAAGACACTTTGGATGGGTTG [3d827] | 0.272
TACACTTGGTAAGACACTTTGGATGGGTTGA [3d601] | 0.0847
TCACTTGTCGTAAGACACTTGGATGGGTTGA [3d17] | 0.419
ATCACTTGCGTAAGACACTTTGATGGGTTGA [3d150] | 0.561
TAACTGTCGTAAGACACTTTGGATGGGTTGA [3d509] | 0.175
TATCACTTGCGTAGACACTTTGGATGGGTTA [3d1637] | 0.781
TATCCTTGTCGTAAGAACTTTGGATGGTTGA [3d1080] | 0.0325
TATACTTGTCGTAGACACTTGGATGGGTTGA [3d876] | 0.61
TATCCTGTCGTAAGACCTTTGGATGGGTTGA [3d959] | 0.772
ATCACTTTCGTAGACACTTTGGATGGGTTGA [3d127] | 0.781
TATATTGTCGTAGACACTTTGGATGGGTTGA [3d764] | 0.499
TATCACTTGTGTAAGACACTTTGGTGGGTTG [3d1802] | 0.0157

Sequence | fraction ligated
TATCACTTGTCGTAAGCTTTGGATGGGTTGA [3d2105] | 0.759
TATCACTGTCGTAAGAACTTTGGATGGGTTA [3d1424] | 0.851
TATCACTTTCGAAGACCTTTGGATGGGTTGA [3d1497] | 0.765
TATCACTTGTCGTAAGCACTTTGATGGTTGA [3d2138] | 0.157
TATCACTTGTCGTAGACCTTTGGATGGTTGA [3d2025] | 0.344
TATCACTTGTGTAAGACCTTTGGAGGGTTGA [3d1775] | 0.137
TATCCTTGTCGTAAACACTTTGGATGGTTGA [3d1062] | 0.0319
TACACTTGTCGTAAACACTTTGGATGGGTTGA [2d57] | 0.0886
TATCACTTGTCTAAGCACTTTGGAGGGTTGA [3d1852] | 0.128
TTCACTTGTCGTAAGACCTTTGGTGGGTTGA [3d472] | 0.0157
TTCATTGTCGTAAGACACTTTGGAGGGTTGA [3d332] | 0.175
TATATTGTCGTAAGAACTTTGGATGGGTTGA [3d767] | 0.468
TATCACTTGTCTAAACACTTTGGATGGGTTA [3d1844] | 0.758
TATCACTTGTCTAAGAATTTGGATGGGTTGA [3d1856] | 0.794
TTCACTGTCGTAAGACACTTTGGATGGGTTG [3d354] | 0.726
TATCATTGTCGTAAGCACTTGGATGGGTTGA [3d1240] | 0.771
TATCACTTGTCTAAGACACTTTGTGGGTTGA [3d1886] | 0.044
TATCACTTGTCTAAGACACTTTGATGGGTTG [3d1890] | 0.751
TATCACTGCGTAAGCACTTTGGATGGGTTGA [3d1332] | 0.826
TATCTTGTCTAAGACACTTTGGATGGGTTGA [3d743] | 0.742
ATCACTTGTCGAAGACACTTTGGATGGGTTA [3d196] | 0.707

Sequence | fraction ligated
TATCACTTTCTAAGACACTTTGGAGGGTTGA [3d1489] | 0.026
TATCCTTGTCGTAAGACACTTTGGAGGGTTG [3d1116] | 0.00286
ATCACTTTCGTAAACACTTTGGATGGGTTGA [3d128] | 0.779
TACACTTGTGTAGACACTTTGGATGGGTTGA [3d619] | 0.0703
TTCACTTGCGTAAGAACTTTGGATGGGTTGA [3d377] | 0.52
TACACTTGTCGTAGAACTTTGGATGGGTTGA [3d662] | 0.145
TATCACTTGTCGTAGACCTTTGGATGGGTTGA [2d225] | 0.814
TATCCTTGCGTAAGACACTTTGATGGGTTGA [3d994] | 0.815
TACACTTGTCGAAGACACTTTGGAGGGTTGA [3d655] | 0.126
TTCATTGTCGTAAGACACTTTGATGGGTTGA [3d330] | 0.505
TATCACTTGTCGTAAGACACTTTGATGGTTGA [2d286] | 0.0395
TATCACTTGTCGAAACACTTTGGATGGGTTA [3d1923] | 0.756
TTCACTTGTCGTAAGCACTTTGGAGGGTTGA [3d458] | 0.051
TATACTGTCGTAAGAACTTTGGATGGGTTGA [3d786] | 0.809
TATACTTGTCGTGACACTTTGGATGGGTTGA [3d870] | 0.708
TATCACTTGTCGTAGACACTTTGGATGGTTG [3d2056] | 0.452
ATCACTTGTCGTAAGACACTTGGATGGGTTGA [2d18] | 0.761
TATCACTTGTCGTAACACTTTGGTGGGTTGA [3d1998] | 0.0145
TATCACTTGCGTAAGACACTTTGGAGGGTTG [3d1700] | 0.0669
TATACTTGTGTAAGACACTTTGGATGGTTGA [3d840] | 0.109
